Measured values published in the supplement of paper PMC9112550, “Optimization of the antimicrobial peptide Bac7 by deep mutational scanning” (BMC Biology, 2022).
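Also: peptides expressed intracellularly from a pBAD plasmid library in pooled LB shake-flask culture, induced with 0.3% L-arabinose, DNA abundance read by NGS, three biological replicates, DESeq2 with apeglm shrinkage.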

The sequences below were run on Escherichia coli TOP10 (assay: shrunken log2 fold change of peptide-encoding DNA abundance (4.5 h post-induction vs induction); higher = less antimicrobial activity (less host growth inhibition)). Conditions: time post-induction: 4.5 h; library: site-saturation at positions 5, 18, 19, 20.
For RRIRERPPRLPRPRPRPLCRPRP, the “shrunken log2 fold change” value was -0.0964. With RRIRRRPPRLPRPRPRPKICPRP the “shrunken log2 fold change” value was 0.0561. In the case of RRIRARPPRLPRPRPRPDTIPRP, the “shrunken log2 fold change” value is reported as 0.103. With RRIRTRPPRLPRPRPRPHTYPRP the “shrunken log2 fold change” value was -0.296. With RRIRNRPPRLPRPRPRPDQKPRP the “shrunken log2 fold change” value was -0.000687. For RRIRFRPPRLPRPRPRPMYWPRP, the “shrunken log2 fold change” value was 0.146. For RRIRKRPPRLPRPRPRPRIFPRP, the “shrunken log2 fold change” value was -0.0494. In the case of RRIRYRPPRLPRPRPRPPSVPRP, the “shrunken log2 fold change” value is reported as -0.209. With RRIRYRPPRLPRPRPRPAHAPRP the “shrunken log2 fold change” value was 0.154. For RRIRRRPPRLPRPRPRPKKGPRP, the “shrunken log2 fold change” value was 0.403. For RRIRCRPPRLPRPRPRPDLYPRP, the “shrunken log2 fold change” value was -0.0793. RRIRNRPPRLPRPRPRPPNYPRP was tested, and the “shrunken log2 fold change” value was -0.564. In the case of RRIRFRPPRLPRPRPRPWPRPRP, the “shrunken log2 fold change” value is reported as 0.626. With RRIRARPPRLPRPRPRPMQKPRP the “shrunken log2 fold change” value was 0.222. In the case of RRIRERPPRLPRPRPRPHPVPRP, the “shrunken log2 fold change” value is reported as -0.277. RRIRARPPRLPRPRPRPCPNPRP was tested, and the “shrunken log2 fold change” value was -0.0809. In the case of RRIRLRPPRLPRPRPRPKEHPRP, the “shrunken log2 fold change” value is reported as 0.227. RRIRMRPPRLPRPRPRPMEDPRP was tested, and the “shrunken log2 fold change” value was 0.0119. RRIRWRPPRLPRPRPRPNGCPRP was tested, and the “shrunken log2 fold change” value was 0.0739. For RRIRIRPPRLPRPRPRPAFNPRP, the “shrunken log2 fold change” value was -0.0935. For RRIRDRPPRLPRPRPRPFISPRP, the “shrunken log2 fold change” value was -0.0503. In the case of RRIRPRPPRLPRPRPRPAMTPRP, the “shrunken log2 fold change” value is reported as -0.085. RRIRPRPPRLPRPRPRPWTPPRP was tested, and the “shrunken log2 fold change” value was 0.0256. For RRIRARPPRLPRPRPRPRFIPRP, the “shrunken log2 fold change” value was -0.259. For RRIRLRPPRLPRPRPRPASHPRP, the “shrunken log2 fold change” value was 0.0961. In the case of RRIRTRPPRLPRPRPRPWTYPRP, the “shrunken log2 fold change” value is reported as -0.00992. With RRIRCRPPRLPRPRPRPAECPRP the “shrunken log2 fold change” value was -0.223. RRIRSRPPRLPRPRPRPKHRPRP was tested, and the “shrunken log2 fold change” value was -0.00685. In the case of RRIRMRPPRLPRPRPRPERRPRP, the “shrunken log2 fold change” value is reported as 0.689. RRIRMRPPRLPRPRPRPNNWPRP was tested, and the “shrunken log2 fold change” value was -0.0238. With RRIRDRPPRLPRPRPRPHWIPRP the “shrunken log2 fold change” value was -0.693. RRIRERPPRLPRPRPRPHYAPRP was tested, and the “shrunken log2 fold change” value was -0.383. For RRIRRRPPRLPRPRPRPHQTPRP, the “shrunken log2 fold change” value was 0.17. RRIRLRPPRLPRPRPRPVTCPRP was tested, and the “shrunken log2 fold change” value was -0.125. With RRIRQRPPRLPRPRPRPCYGPRP the “shrunken log2 fold change” value was -0.0796. In the case of RRIRMRPPRLPRPRPRPKTQPRP, the “shrunken log2 fold change” value is reported as 0.971. With RRIRKRPPRLPRPRPRPLCKPRP the “shrunken log2 fold change” value was 0.0465. RRIRDRPPRLPRPRPRPLAYPRP was tested, and the “shrunken log2 fold change” value was 0.0112. With RRIRMRPPRLPRPRPRPRLFPRP the “shrunken log2 fold change” value was 0.998. In the case of RRIRFRPPRLPRPRPRPIMRPRP, the “shrunken log2 fold change” value is reported as 0.0101. RRIRPRPPRLPRPRPRPVAVPRP was tested, and the “shrunken log2 fold change” value was 0.143. For RRIRGRPPRLPRPRPRPSWSPRP, the “shrunken log2 fold change” value was 0.425. For RRIRKRPPRLPRPRPRPPWLPRP, the “shrunken log2 fold change” value was 0.574. RRIRQRPPRLPRPRPRPEPHPRP was tested, and the “shrunken log2 fold change” value was 0.0864. RRIRYRPPRLPRPRPRPVHWPRP was tested, and the “shrunken log2 fold change” value was 0.0233. RRIRIRPPRLPRPRPRPCNWPRP was tested, and the “shrunken log2 fold change” value was -0.135. RRIRMRPPRLPRPRPRPVCEPRP was tested, and the “shrunken log2 fold change” value was 0.353. For RRIRCRPPRLPRPRPRPKAFPRP, the “shrunken log2 fold change” value was -0.0921. RRIRIRPPRLPRPRPRPPHNPRP was tested, and the “shrunken log2 fold change” value was -0.521. With RRIRTRPPRLPRPRPRPSSYPRP the “shrunken log2 fold change” value was -0.0381. With RRIRGRPPRLPRPRPRPGFKPRP the “shrunken log2 fold change” value was 0.354. RRIRDRPPRLPRPRPRPQDWPRP was tested, and the “shrunken log2 fold change” value was 0.324. For RRIRVRPPRLPRPRPRPDNLPRP, the “shrunken log2 fold change” value was 0.0725. With RRIRQRPPRLPRPRPRPSTKPRP the “shrunken log2 fold change” value was 0.0644. RRIRGRPPRLPRPRPRPQDRPRP was tested, and the “shrunken log2 fold change” value was 0.297. With RRIRARPPRLPRPRPRPAPPPRP the “shrunken log2 fold change” value was 1.27. For RRIRSRPPRLPRPRPRPHWYPRP, the “shrunken log2 fold change” value was -0.648. For RRIRSRPPRLPRPRPRPWGGPRP, the “shrunken log2 fold change” value was 0.27. For RRIRYRPPRLPRPRPRPKKQPRP, the “shrunken log2 fold change” value was -0.00353. With RRIRRRPPRLPRPRPRPMVGPRP the “shrunken log2 fold change” value was 0.397. For RRIRFRPPRLPRPRPRPYIRPRP, the “shrunken log2 fold change” value was -0.755. For RRIRMRPPRLPRPRPRPPCEPRP, the “shrunken log2 fold change” value was 1.11. In the case of RRIRDRPPRLPRPRPRPRTPPRP, the “shrunken log2 fold change” value is reported as 0.17. RRIRNRPPRLPRPRPRPRGTPRP was tested, and the “shrunken log2 fold change” value was 0.224. With RRIRERPPRLPRPRPRPCCNPRP the “shrunken log2 fold change” value was -0.0562. In the case of RRIRMRPPRLPRPRPRPSSTPRP, the “shrunken log2 fold change” value is reported as 0.858. With RRIRQRPPRLPRPRPRPGAVPRP the “shrunken log2 fold change” value was 0.274. RRIRQRPPRLPRPRPRPSMNPRP was tested, and the “shrunken log2 fold change” value was -0.568. For RRIRYRPPRLPRPRPRPRPHPRP, the “shrunken log2 fold change” value was -0.0677. For RRIRSRPPRLPRPRPRPEPNPRP, the “shrunken log2 fold change” value was 0.374. In the case of RRIRFRPPRLPRPRPRPGSDPRP, the “shrunken log2 fold change” value is reported as -0.111. With RRIRVRPPRLPRPRPRPRNTPRP the “shrunken log2 fold change” value was -0.365. In the case of RRIRDRPPRLPRPRPRPAQCPRP, the “shrunken log2 fold change” value is reported as 0.0665. RRIRIRPPRLPRPRPRPNFGPRP was tested, and the “shrunken log2 fold change” value was -0.0272. With RRIRERPPRLPRPRPRPNFTPRP the “shrunken log2 fold change” value was -0.111.
